Source: PMC5599688
Each block holds one substance with its values, some of them ahead of it.

What was measured:
[1] = target: calnexin (rat brain) (rat (endogenous in brain)) (UniProt P35565); test: co-IP; 10% rat brain homogenate (also NEC versus GAERS brain) in 50 mM TrisHCl pH 8.0, 300 mM NaCl, 0.5% Triton X100, 0.5% DOC; rabbit polyclonal anti-CNX overnight at 4 °C, Sepharose G beads; blotted for Cav3.2; signal normalised to precipitated calnexin
[2] = target: calnexin in tsA-201 cells (not stated (endogenous human in tsA-201, or transfected mouse cDNA)) (UniProt P27824)
[3] = target: GFP-tagged III-IV linker of rat Cav3.2 without exon 25, GAERS mutation R1584P (rat); test: co-IP; tsA-201 cells 72 h after transfection, NP40 lysis buffer; precipitated with anti-GFP (GFP-tagged Cav3.2 regions), blotted with anti-mCherry; densitometry normalised to expression levels
[4] = target: GFP-tagged III-IV linker of rat Cav3.2 without exon 25, wild type (rat); test: as above
[5] = target: GFP-tagged III-IV linker of human Cav3.2 with R1573P (human) (UniProt O95180); test: as above
[6] = target: GFP-tagged III-IV linker of rat Cav3.2 with exon 25, GAERS mutation R1584P (rat); test: as above
GFP-tagged III-IV linker of rat Cav3.2 with exon 25, GAERS mutation R1584P (rat), sequence (Q9EQ60 whole entry R1584P): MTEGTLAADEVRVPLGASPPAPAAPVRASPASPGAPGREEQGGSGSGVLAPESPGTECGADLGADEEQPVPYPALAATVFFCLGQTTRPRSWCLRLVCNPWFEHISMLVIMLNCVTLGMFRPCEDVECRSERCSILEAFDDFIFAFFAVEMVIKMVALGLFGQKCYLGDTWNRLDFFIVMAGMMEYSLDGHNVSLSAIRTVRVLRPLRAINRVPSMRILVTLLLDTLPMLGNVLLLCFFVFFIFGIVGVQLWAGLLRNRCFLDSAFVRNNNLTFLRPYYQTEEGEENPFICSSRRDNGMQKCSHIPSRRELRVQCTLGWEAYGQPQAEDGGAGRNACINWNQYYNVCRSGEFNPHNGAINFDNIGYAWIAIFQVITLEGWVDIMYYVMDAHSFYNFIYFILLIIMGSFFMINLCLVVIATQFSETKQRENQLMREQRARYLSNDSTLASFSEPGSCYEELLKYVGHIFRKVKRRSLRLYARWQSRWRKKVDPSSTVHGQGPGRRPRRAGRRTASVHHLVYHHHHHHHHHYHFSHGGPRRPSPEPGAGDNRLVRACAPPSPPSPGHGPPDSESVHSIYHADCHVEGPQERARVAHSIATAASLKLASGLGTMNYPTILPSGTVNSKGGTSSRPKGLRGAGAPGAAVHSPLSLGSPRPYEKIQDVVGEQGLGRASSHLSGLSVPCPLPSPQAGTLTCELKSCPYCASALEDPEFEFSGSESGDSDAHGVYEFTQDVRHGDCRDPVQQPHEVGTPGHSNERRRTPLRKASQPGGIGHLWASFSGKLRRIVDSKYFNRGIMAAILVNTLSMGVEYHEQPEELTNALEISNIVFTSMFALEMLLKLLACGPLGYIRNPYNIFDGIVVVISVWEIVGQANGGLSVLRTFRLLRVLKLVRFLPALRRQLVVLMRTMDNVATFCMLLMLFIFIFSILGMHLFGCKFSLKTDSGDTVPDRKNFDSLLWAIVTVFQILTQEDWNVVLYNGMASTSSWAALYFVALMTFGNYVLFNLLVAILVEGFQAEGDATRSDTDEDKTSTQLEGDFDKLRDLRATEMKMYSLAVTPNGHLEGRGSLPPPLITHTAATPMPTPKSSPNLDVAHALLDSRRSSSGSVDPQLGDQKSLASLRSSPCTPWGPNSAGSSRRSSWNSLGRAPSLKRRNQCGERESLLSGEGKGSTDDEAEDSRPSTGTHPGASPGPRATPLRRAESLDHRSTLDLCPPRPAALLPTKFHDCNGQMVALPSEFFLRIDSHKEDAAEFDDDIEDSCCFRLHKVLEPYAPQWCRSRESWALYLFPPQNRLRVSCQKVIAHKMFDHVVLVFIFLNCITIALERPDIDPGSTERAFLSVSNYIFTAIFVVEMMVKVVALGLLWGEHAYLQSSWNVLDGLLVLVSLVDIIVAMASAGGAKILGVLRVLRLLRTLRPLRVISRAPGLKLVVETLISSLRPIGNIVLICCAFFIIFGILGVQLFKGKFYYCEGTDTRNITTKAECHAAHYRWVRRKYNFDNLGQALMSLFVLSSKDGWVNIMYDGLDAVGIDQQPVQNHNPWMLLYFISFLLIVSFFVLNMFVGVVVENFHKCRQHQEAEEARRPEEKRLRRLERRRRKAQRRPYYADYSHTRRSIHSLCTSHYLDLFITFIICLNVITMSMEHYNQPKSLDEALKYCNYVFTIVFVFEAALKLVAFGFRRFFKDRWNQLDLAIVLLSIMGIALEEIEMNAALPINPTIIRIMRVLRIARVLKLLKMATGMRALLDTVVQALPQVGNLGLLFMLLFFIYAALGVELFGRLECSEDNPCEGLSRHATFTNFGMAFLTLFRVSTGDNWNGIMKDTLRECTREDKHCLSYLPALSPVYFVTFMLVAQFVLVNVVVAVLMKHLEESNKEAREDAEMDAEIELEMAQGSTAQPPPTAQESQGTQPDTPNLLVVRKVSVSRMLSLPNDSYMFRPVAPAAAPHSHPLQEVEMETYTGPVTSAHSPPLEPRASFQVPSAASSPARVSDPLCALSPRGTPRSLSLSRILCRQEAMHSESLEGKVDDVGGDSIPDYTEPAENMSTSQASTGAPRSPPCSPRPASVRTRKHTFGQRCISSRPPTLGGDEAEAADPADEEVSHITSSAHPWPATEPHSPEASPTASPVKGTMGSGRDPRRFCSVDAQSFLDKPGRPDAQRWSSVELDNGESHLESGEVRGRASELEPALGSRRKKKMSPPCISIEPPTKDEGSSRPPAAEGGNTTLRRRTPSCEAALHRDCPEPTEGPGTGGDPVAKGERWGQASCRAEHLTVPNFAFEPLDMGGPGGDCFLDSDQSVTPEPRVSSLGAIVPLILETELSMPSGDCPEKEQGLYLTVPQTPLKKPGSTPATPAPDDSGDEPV

UniProt P27824, sequence (P27824 21-592): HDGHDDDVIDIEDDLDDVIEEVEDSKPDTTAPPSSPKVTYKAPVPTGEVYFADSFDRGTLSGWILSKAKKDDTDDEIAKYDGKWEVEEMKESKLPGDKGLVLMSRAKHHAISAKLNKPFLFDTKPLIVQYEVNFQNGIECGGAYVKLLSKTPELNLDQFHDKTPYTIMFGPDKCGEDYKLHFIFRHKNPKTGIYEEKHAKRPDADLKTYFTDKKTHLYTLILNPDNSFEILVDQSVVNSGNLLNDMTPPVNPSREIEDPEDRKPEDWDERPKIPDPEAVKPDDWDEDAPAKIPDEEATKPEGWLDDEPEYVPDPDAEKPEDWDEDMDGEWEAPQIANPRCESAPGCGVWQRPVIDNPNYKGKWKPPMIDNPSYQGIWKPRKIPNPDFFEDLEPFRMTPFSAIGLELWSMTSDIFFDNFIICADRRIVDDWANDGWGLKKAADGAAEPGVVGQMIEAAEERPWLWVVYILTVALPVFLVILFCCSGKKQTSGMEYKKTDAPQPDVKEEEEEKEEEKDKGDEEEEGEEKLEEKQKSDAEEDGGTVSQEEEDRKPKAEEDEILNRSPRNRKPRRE
GFP-tagged III-IV linker of rat Cav3.2 without exon 25, wild type (rat), sequence (Q9EQ60 whole entry, stated change not applied): as the sequence (Q9EQ60 whole entry R1584P) above, with P1584R counted along it
GFP-tagged III-IV linker of rat Cav3.2 without exon 25, GAERS mutation R1584P (rat), sequence (Q9EQ60 whole entry R1584P): as the sequence (Q9EQ60 whole entry R1584P) above
UniProt P35565, sequence (P35565 21-591): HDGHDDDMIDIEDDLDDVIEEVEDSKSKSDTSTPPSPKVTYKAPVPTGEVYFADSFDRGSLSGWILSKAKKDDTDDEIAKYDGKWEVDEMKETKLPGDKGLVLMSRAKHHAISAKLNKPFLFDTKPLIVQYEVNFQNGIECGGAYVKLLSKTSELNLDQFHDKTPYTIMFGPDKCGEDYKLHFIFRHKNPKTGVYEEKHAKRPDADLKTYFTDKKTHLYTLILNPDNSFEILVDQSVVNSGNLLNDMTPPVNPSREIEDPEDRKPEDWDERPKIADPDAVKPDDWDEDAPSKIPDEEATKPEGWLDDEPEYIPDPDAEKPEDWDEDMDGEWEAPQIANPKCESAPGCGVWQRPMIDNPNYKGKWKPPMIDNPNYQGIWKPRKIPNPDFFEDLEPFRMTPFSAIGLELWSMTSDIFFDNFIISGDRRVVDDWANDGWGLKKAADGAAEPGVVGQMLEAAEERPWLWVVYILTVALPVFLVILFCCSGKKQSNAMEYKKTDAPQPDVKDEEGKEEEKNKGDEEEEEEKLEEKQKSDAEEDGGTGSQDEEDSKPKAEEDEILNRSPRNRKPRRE

decrease of Cav3.2 co-immunoprecipitated with calnexin, GAERS against NEC brain [1]: 42%
Substance: Cav3.2 T-type calcium channel of GAERS brain (R1584P), Q9EQ60 1-2359

mean peak Ba2+ current density at −20 mV, tsA-201 cells expressing HA-hCav3.2 with the soluble calnexin C-tail CNX^CD against control cells (increase) [2]: 76% | surface expression of HA-tagged Cav3.2 by immunostaining, tsA-201 cells expressing the calnexin C-tail CNX^CD against control cells (increase) [2]: 30%
Substance: HA-tagged human Cav3.2 channel, O95180 1-2353

additional decrease of binding (reference unclear: printed as against wild-type rIII-IV (+25)) [3]: 69% | decrease of binding against wild-type rIII-IV (+25) [4]: 75% | decrease of co-immunoprecipitated calnexin C-tail against the wild-type III-IV linker [5]: 70% | decrease of binding against wild-type rIII-IV (+25) [6]: 82%
Substance: mCherry-tagged calnexin lacking the luminal domain (CNX^BD) (from UniProt P35564 483-591) (domain or fragment)
